Laboratory results: paper doi:10.1101/466938v1

B1: hTMPK (Homo sapiens) (protein)
chain: MAARRGALIVLEGVDRAGKSTQSRKLVEALCAAGHRAELLRFPERSTEIGKLLSSYLQKKSDVEDHSVHLLFSANRWEQVPLIKEKLSQGVTLVVDRYAFSGVAFTGAKENFSLDWCKQPDVGLPKPDLVLFLQLQLADAAKRGAFGHERYENGAFQERALRCFHQLMKDTTLNWKMVDASKSIEAVHEDIRVLSEDAIRTATEKPLGELWK
B2: CaTMPK (Candida albicans SC5314) (protein)
chain: MARGQLILIEGLDRSGKSTQASILSTKLSPSKLIKFPDRSTPIGKLINEYLTNKSFTLSDQAAHLLFSANRWELSQQIQDLLNQGYFIILDRYIYSGIAYTLAKNDFHDETISQGKNKQQLNNIDWLLSPDKGLPKPDLTLFLTLDLEEISKRKGWGDERYELQQFQAKVKQCFLEILDTNKDPTIRIVDVGGKTIDQVTTQLWEIIETNKNHELINDSIQFIT

Assays:
NADH-coupled assay [1] = substrate: Cc1cn([C@H]2C[C@H](O)[C@@H](COP(=O)(O)O)O2)c(=O)[nH]c1=O; assay: NADH-coupled assay; type: biochemical, Homo sapiens; settings: 500 μM ATP, 100 mM Tris-HCl, 100 mM KCl, 10 mM MgCl2
NADH-coupled assay [2] = substrate: Cc1cn([C@H]2C[C@H](O)[C@@H](COP(=O)(O)O)O2)c(=O)[nH]c1=O; assay: NADH-coupled assay; type: biochemical, Candida albicans; settings: 500 μM ATP, 100 mM Tris-HCl, 100 mM KCl, 10 mM MgCl2

Protein	Km (NADH-coupled assay [1]) [µM]	kcat (NADH-coupled assay [1]) [s⁻¹]	Km (NADH-coupled assay [2]) [µM]	kcat (NADH-coupled assay [2]) [s⁻¹]
B1	16.3 ± 2.3	0.352 ± 0.01		
B2			24.1 ± 3.2	5.347 ± 0.118
